Reference: patent publication CN105461808A (CHANGCHUN GENESCIENCE PHARMACEUTICALS CO LTD, dated 2016)

B1: H018-17B5.5.1 (antibody, mouse IgG1, V domains shown)
VH: QVQLQQSGAELMKPGASVKISCKATGYKFSSYWIEWVKQRPGHGLEWIGEILPGSGNPNYDEKFKGKATFTADTSSNTAYMQLSSLTSEDSAVYYCARERWMDSWGQGTSVTVSS
VL: DIQMTQTASSLSASLGDRVTISCSASQGIFNYLNWYQQKPDGTVTVLIYYTSRLHSGVPSRFSGSGSGTDYSLTISNLEPEDIATYYCQQYSKLPYTFGGGTKLEIKR
notes: Mouse hybridoma antibody purified from supernatant
B2: H017-9C10.2.8 (antibody, mouse IgG1, V domains shown)
VH: QVQLKQSGFGLVLPSQSLSITCTVSGFSLTSYGVHWVRQSPGKGLEWLGLIWSGGGTDYNAAFISRLSISKDNSKSQVFFKINSLQANDTAIYYCARQLGLRAMDYWGQGTSVTVSS
VL: DILLTQSPAILSVSPGERVSFSCRASQSIGTTIHWYQQRTNGSPRLLIKYASESVSGIPSRFSGSGSGTDFTLSINSVESEDIADYYCQQSNSWPLTFGAGTKLEIK
notes: as for B1
B3: H017-6F11.3.2 (antibody, mouse IgG2b, V domains shown)
VH: EVQLQQSGAELVKPGASVKLSCTASGFNIKDTYIHWMRQRPEQGLEWIGRIDPANDNTKYDPKFQGKATVTADTSSNTAYLQLSSLTSEDTAVYYCARGLRLRYFDVWGAGTTVTVSS
VL: DIQMTQTPSSLSASLGGKVTITCKASQDIHKYIAWYQHKPGKGPRLLIHYTSTLQPGIPSRFSGSGSGRDFSFSISNLEPEDFETYYCLQYENLLPTFGGGTKLEIK
notes: as for B1

The binders below were run against T1, MonkeyPDL1-his (monkey) (assay: ELISA, MonkeyPDL1-his coated 1 ug/ml, antibody titrated, HRP secondary).
T1 construct: Coating antigen of the ELISA on monkey PD-L1; also called 猴PDL-1

| Binder | EC50 [nM] |
| --- | --- |
| B1 | 0.7 |
| B2 | 0.191 |
| B3 | 0.123 |

The binders below were run against T2, PDL1-hFc (human, UniProt Q9NZQ7 19-238, limits assumed) (assay: ELISA, PDL1-hFc coated 1 ug/ml, antibody titrated, HRP secondary).
T2 construct: Coating antigen of the ELISA on human PD-L1 and of the T cell proliferation assay; also called humanPDL-1; 人PDL-1; not shown: human Fc (hFc)
T2 sequence (Q9NZQ7 19-238 limits assumed): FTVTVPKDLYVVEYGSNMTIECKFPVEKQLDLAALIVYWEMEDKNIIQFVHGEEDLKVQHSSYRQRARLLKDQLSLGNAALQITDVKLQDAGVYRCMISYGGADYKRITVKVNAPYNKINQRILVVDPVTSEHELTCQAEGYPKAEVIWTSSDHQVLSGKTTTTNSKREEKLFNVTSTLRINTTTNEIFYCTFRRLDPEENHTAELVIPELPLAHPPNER

| Binder | EC50 [nM] |
| --- | --- |
| B1 | 0.133 |
| B2 | 0.079 |
| B3 | 0.049 |
